Reference: patent US20240327526A1 (Amgen, published 2024)

What was measured:
ActRIIA-huFc [1] = target: T1, ActRIIA-huFc (human); experiment: binding affinity, method not stated
T1 construct: Used biotinylated in the ELISA screens; also called huActRIIA-huFc; biotin-ActRIIA-huFc

[2] = target: T2, activin type IIB receptor (ActRIIB) on C2C12/pMARE-luc cells co-transfected with ALK4 (Homo sapiens (Human), UniProt Q13705 19-134); experiment: cell-based or functional assay
T2 chain: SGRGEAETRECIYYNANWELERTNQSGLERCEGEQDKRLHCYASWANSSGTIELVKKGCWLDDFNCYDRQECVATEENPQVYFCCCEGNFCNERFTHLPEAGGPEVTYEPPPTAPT

[3] = target: activin type IIA receptor (ActRIIA) on C2C12/pMARE-luc cells co-transfected with ALK4 (Homo sapiens (Human), UniProt P27037 20-513); experiment: cell-based or functional assay
ActRIIA-huFc [4] = target: T1, ActRIIA-huFc; experiment: BIAcore
ActRIIA-huFc [5] = target: T1, ActRIIA-huFc; experiment: KinExA

T1 sequence (chain, as listed by the source limits assumed): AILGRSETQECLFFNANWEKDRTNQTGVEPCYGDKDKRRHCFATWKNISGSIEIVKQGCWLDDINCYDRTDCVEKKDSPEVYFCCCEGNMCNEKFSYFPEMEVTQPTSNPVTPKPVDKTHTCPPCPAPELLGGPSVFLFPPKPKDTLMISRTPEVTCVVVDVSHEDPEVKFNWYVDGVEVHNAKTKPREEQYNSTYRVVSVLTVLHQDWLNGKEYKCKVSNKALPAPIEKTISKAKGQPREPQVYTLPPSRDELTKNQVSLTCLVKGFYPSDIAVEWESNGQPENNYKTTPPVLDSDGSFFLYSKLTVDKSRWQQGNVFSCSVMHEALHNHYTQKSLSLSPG
Chain of activin type IIA receptor (ActRIIA) on C2C12/pMARE-luc cells co-transfected with ALK4 (P27037 20-513): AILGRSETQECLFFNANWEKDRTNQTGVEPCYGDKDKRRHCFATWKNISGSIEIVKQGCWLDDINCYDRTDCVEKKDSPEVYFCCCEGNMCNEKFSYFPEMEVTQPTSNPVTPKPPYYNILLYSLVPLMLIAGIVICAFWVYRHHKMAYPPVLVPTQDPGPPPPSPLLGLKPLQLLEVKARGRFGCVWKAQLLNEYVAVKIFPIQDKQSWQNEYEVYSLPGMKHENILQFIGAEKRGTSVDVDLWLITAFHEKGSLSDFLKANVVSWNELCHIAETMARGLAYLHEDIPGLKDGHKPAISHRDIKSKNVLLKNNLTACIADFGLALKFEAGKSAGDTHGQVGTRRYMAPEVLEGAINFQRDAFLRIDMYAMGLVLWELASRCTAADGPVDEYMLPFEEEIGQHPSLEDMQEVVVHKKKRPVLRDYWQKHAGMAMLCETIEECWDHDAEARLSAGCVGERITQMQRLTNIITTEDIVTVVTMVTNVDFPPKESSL

B1: Anti-ActRIIB human IgG R31-1 (antibody, V domains shown)
VH: EVQLLESGGGLVQPGGSLRLSCAASGFTFRNYAMSWVRQAPGKGLEWVSGISVTGGSTYYTDSVKGRFTVSRDNSRNTLYLQMNSLRAEDTAVYYCAKVYYSSFFDYWGQGTLVTVSS
VL: QTVVTQEPSFSVSPGGTVTLTCGFNSGSVSTSYYPSWYQQTPGQAPRTLIYNTNTRSSGVPDRFSGSILGNKAALTITGAQADDESDYYCVLYMGSGIWVFGGGTKLTVLG
notes: Human IgG2/kappa from Xenomouse immunization with ActRIIB-huFc; also called parental 31-1; parental molecule R31-1
- Kd (ActRIIA-huFc [1]): ~1000 pM
- Cell-Based IC50, ActRIIB Signaling (luciferase reporter, C2C12/pMARE-luc cells with ActRIIB + ALK4, 4 nM myostatin or activin) [2]: 8 nM
- Cell-Based IC50, ActRIIA Signaling (luciferase reporter, C2C12/pMARE-luc cells with ActRIIA + ALK4, 4 nM myostatin or activin) [3]: 2 nM
- Kd (ActRIIA-huFc [4]): 4000 pM

B2: M25 (antibody, human IgG2, lambda, V domains shown)
VH: EVQLLESGGGLVQPGGSLRLSCAASGFTFRNSAMSWVRQAPGKGLEWVSAISVTGGSTYYTDSVKGRFTVSRDNSRNTLYLQMNSLRAEDTAVYYCAKVYYYSFFDYWGQGTLVTVSS
VL: QTVVTQEPSFSVSPGGTVTLTCGFNSGSVSTSYYPSWYQQTPGQAPRTLIYNTNTRSSGVPDRFSGSILGNKAALTITGAQADDESDYYCVLYMGSGIHVFGGGTKLTVLG
- Kd (ActRIIA-huFc [5]): < 1 pM
- fold improvement of affinity over the parental molecule R31-1 (ActRIIA-huFc [5]): ≥ 1000 fold

B3: M37 (antibody, human IgG2, lambda, V domains shown)
VH: EVQLLESGGGLVQPGGSLRLSCAASGFTFRNYAMAWVRQAPGKGLEWVSGISVTGGSTFYTDSVKGRFTVSRDNSRNTLYLQMNSLRAEDTAVYYCAKVYYTSFFDYWGQGTLVTVSS
VL: QTVVTQEPSFSVSPGGTVTLTCGFNSGSVSTSYYPSWYQQTPGQAPRTLIYNTNTRSSGVPDRFSGSILGNKAALTITGAQADDESDYYCVLWMGSGIWVFGGGTKLTVLG
- Kd (ActRIIA-huFc [5]): < 1 pM
- fold improvement of affinity over the parental molecule R31-1 (ActRIIA-huFc [5]): ≥ 1000 fold

B4: M43 (antibody, human IgG2, lambda, V domains shown)
VH: EVQLLESGGGLVQPGGSLRLSCAASGFTFRNSAMSWVRQAPGKGLEWVSGISVTGGSTFYTDSVKGRFTVSRDNSRNTLYLQMNSLRAEDTAVYYCAKVYYYSFFDYWGQGTLVTVSS
VL: QTVVTQEPSFSVSPGGTVTLTCGFNSGSVSTSYWPSWYQQTPGQAPRTLIYNTNTRSSGVPDRFSGSILGNKAALTITGAQADDESDYYCVLWMGSGIWVFGGGTKLTVLG
notes: fully human
- Cell-Based IC50, ActRIIB Signaling (luciferase reporter, C2C12/pMARE-luc cells with ActRIIB + ALK4, 4 nM myostatin or activin) [2]: 2 nM
- Kd (ActRIIA-huFc [5]): < 1 pM
- fold improvement of affinity over the parental molecule R31-1 (ActRIIA-huFc [5]): ≥ 1000 fold
- Kd (ActRIIA-huFc [4]): 1 pM
